According to article doi:10.1101/2024.01.10.575067:

Target: tetra-Cys human GAPDH (TC-hGAPDH), bacterially expressed and purified (human) (UniProt P04406)
Assay: SEC

## tetra-Cys human GAPDH (TC-hGAPDH), bacterially expressed and purified (from UniProt P04406 1-335) (enzyme)
  stoichiometry N: 4
